Test results as given in the supplement of paper PMC10065799, “High-throughput profiling of sequence recognition by tyrosine kinases and SH2 domains using bacterial peptide display” (eLife, 2023).

Assays:
SHP2-C SH2 = assay: SH2 binding enrichment of the phosphorylated peptide, bacterial display (enrichment ratio); higher = better substrate or ligand; peptides without Tyr show the background
c-Src SH2 = assay: as above
Grb2 SH2 = Grb2 SH2 (UniProt P62993); assay: as above
Hck = Hck (UniProt P08631); assay: phosphorylation enrichment, bacterial display (enrichment ratio); higher = better substrate or ligand; peptides without Tyr show the background
Hck, sequence (P08631 whole entry, looked up): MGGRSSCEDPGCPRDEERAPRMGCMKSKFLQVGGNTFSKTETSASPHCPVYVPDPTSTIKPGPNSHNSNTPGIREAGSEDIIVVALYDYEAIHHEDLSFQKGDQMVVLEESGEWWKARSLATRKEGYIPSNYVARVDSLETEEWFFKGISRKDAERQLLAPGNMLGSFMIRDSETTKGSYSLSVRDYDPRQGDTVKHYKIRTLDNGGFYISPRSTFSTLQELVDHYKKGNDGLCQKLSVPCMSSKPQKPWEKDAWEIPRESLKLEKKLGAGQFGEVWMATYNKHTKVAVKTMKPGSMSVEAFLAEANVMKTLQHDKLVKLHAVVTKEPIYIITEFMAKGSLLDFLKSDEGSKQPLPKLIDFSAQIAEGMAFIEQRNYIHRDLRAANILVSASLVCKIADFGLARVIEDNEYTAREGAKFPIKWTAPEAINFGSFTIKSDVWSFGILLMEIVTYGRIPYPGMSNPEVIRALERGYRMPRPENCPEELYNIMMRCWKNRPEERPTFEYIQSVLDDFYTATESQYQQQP

c-Abl (mouse) = assay: as above
Jak2 = Jak2 (UniProt O60674); assay: as above
Jak2, sequence (O60674 whole entry, looked up): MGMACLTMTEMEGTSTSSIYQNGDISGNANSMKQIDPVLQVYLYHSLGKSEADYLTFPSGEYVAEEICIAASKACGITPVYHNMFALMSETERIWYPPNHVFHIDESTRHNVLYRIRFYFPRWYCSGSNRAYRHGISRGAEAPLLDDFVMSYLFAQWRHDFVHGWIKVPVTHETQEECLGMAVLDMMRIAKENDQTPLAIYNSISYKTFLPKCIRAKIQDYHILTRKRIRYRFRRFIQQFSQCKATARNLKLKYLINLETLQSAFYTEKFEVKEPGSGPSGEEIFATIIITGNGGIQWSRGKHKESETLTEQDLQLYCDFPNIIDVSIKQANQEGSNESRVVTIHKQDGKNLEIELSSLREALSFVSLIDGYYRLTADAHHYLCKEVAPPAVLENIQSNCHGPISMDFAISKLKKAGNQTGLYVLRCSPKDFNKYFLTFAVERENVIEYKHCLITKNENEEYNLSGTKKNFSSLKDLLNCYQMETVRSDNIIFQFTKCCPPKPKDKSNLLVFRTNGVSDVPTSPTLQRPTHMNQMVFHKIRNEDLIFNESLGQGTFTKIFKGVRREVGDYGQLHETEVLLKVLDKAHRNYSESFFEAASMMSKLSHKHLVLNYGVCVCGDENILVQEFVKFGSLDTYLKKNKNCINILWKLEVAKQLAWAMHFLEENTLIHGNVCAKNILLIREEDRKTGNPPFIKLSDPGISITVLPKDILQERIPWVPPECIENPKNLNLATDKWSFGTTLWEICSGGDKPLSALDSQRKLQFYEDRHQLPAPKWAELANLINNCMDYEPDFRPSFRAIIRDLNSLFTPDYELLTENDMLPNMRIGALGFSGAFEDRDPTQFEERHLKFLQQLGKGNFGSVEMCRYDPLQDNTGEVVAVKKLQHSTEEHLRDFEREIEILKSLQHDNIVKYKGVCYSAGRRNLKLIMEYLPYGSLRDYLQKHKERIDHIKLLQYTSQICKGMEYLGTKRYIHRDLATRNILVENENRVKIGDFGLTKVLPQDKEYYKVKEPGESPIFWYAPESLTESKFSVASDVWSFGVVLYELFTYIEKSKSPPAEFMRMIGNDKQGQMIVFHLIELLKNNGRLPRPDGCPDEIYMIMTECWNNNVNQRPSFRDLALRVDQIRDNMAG

Fyn = Fyn (UniProt P06241); assay: as above
Fyn, sequence (P06241 whole entry, looked up): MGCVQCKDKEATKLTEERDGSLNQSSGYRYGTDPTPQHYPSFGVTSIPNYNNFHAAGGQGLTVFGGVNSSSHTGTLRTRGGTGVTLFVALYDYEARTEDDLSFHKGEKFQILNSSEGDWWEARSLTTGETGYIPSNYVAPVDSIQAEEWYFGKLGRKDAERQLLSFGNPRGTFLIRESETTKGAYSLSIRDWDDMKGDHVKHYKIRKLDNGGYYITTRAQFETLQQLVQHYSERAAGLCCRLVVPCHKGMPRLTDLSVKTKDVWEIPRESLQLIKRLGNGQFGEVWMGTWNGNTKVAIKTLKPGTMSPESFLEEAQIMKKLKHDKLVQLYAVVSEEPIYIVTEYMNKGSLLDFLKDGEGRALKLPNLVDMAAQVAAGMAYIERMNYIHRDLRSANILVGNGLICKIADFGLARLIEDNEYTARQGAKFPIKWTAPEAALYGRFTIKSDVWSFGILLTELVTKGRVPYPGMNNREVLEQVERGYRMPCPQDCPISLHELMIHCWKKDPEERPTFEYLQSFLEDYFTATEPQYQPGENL

Fer (mouse) = assay: as above
c-Src = assay: as above
EPHB1 = EPHB1 (UniProt P54762); assay: as above
MERTK = MERTK (UniProt Q12866); assay: as above
MERTK, sequence (Q12866 whole entry, looked up): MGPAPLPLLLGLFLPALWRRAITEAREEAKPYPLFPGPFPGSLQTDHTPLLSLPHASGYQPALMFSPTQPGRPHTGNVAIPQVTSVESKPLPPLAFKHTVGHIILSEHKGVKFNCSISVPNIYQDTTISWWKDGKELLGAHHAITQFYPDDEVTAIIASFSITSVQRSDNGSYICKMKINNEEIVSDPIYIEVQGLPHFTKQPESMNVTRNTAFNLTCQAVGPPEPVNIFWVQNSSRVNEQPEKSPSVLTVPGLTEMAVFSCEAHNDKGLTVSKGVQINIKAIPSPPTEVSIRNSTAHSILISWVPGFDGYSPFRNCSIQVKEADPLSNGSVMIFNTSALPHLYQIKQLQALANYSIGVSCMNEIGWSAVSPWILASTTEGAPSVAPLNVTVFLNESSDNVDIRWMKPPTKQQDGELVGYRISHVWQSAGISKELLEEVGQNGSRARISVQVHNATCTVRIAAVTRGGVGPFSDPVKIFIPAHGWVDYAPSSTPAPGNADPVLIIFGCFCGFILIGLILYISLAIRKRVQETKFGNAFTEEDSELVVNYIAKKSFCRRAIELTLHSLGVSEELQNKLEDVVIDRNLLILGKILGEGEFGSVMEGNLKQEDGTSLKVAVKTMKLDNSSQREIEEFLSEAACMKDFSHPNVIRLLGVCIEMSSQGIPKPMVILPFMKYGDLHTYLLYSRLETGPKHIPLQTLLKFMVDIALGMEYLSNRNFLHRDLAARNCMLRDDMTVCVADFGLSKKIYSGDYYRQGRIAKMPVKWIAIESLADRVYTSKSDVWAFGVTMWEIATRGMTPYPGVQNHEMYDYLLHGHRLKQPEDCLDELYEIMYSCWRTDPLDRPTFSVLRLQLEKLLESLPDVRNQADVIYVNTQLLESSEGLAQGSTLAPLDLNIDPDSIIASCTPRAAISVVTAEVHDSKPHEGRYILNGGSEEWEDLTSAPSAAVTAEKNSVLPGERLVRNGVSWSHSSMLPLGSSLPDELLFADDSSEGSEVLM

FGFR3 = FGFR3 (UniProt P22607); assay: as above
AncSZ = assay: as above
EPHB2 = EPHB2 (UniProt P29323); assay: as above
EPHB2, sequence (P29323 whole entry, looked up): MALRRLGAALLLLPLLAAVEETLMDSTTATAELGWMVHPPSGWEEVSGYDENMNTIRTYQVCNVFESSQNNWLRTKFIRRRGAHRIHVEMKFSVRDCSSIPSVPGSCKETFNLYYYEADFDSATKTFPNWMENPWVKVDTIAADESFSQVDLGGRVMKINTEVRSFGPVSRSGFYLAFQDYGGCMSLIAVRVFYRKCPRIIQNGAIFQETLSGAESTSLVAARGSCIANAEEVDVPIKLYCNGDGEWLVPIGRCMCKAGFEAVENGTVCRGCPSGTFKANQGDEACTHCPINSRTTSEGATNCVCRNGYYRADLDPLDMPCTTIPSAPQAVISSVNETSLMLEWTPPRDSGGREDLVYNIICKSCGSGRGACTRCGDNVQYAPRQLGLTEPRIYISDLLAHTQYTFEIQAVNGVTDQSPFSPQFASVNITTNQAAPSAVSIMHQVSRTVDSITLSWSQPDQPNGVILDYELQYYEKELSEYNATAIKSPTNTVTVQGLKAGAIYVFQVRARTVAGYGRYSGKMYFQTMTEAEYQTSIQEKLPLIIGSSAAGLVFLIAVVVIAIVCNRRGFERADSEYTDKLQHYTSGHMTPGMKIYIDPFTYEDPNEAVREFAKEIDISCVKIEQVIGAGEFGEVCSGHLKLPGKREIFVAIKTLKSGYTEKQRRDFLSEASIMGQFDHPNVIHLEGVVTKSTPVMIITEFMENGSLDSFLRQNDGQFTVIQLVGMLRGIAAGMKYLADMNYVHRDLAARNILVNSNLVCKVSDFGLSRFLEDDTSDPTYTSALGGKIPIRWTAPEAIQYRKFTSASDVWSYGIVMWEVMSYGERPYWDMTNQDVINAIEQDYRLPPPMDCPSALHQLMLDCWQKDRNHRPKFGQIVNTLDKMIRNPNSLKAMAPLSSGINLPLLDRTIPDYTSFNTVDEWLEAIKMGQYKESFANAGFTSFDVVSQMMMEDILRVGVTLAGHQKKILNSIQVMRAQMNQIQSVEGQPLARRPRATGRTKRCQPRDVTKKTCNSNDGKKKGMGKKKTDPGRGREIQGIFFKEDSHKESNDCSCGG

FGFR1 = FGFR1 (UniProt P11362); assay: as above
FGFR1, sequence (P11362 whole entry, looked up): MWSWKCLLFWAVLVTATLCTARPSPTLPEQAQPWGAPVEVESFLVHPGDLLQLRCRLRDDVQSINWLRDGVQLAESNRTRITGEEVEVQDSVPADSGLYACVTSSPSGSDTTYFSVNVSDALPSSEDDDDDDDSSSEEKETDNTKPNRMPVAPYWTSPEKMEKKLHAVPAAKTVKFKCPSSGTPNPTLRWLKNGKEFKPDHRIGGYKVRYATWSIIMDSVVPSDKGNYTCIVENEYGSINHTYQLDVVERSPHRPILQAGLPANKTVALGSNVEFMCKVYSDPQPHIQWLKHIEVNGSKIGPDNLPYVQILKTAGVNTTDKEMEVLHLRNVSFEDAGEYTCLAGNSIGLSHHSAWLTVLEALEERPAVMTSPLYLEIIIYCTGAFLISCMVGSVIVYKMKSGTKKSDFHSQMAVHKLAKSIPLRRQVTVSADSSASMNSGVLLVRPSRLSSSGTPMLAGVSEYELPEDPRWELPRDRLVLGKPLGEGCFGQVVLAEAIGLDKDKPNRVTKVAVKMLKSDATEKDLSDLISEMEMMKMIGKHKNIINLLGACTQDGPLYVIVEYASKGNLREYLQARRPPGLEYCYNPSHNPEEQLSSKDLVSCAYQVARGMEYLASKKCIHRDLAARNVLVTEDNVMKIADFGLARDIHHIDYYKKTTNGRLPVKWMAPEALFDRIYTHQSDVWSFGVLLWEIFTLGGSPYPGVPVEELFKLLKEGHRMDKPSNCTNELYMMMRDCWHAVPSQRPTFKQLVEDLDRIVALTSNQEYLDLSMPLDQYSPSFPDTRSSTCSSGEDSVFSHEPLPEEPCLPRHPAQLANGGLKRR

Fes = Fes (UniProt P07332); assay: as above
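Throughout, for SH2 binding enrichment of the phosphorylated peptide, bacterial display: peptide library displayed on the E. coli surface as eCPX fusions, selected cells deep-sequenced, score is each peptide's frequency after selection divided by its frequency in the input.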
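Throughout, for phosphorylation enrichment, bacterial display: 11-residue human phosphosite peptides and single-mutation variants displayed on the E. coli surface, counted by deep sequencing, each peptide's frequency after selection divided by its frequency in the unselected input library; frequency after pTyr selection over input frequency; kinase dosed for 20-30% of maximal phosphorylation in three min.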

Sequence | SH2 binding enrichment (SHP2-C SH2) | SH2 binding enrichment (c-Src SH2) | SH2 binding enrichment (Grb2 SH2) | phosphorylation enrichment (Hck) | phosphorylation enrichment (c-Abl (mouse)) | phosphorylation enrichment (Jak2) | phosphorylation enrichment (Fyn) | phosphorylation enrichment (Fer (mouse)) | phosphorylation enrichment (c-Src) | phosphorylation enrichment (EPHB1) | phosphorylation enrichment (MERTK) | phosphorylation enrichment (FGFR3) | phosphorylation enrichment (AncSZ) | phosphorylation enrichment (EPHB2) | phosphorylation enrichment (FGFR1) | phosphorylation enrichment (Fes)
AEPPDYSPVTH [ADGRG2_Y285] | 0.611 | 0.477 | 0.836 | 0.598 | 0.792 | 0.836 | 0.542 | 0.764 | 0.417 | 0.817 | 0.491 | 0.786 | 1.66 | 0.582 | 0.54 | 1.06
PTATSYTPNLA [GABRA1_Y375] | 0.604 | 0.729 | 0.699 | 0.477 | 0.505 | 0.349 | 0.643 | 0.571 | 0.306 | 0.291 | 0.357 | 0.607 | 0.568 | 0.314 | 0.459 | 0.521
GKTFTYHSVFF [ZNF80_Y200_R201H] | 0.645 | 0.655 | 0.89 | 0.592 | 1 | 1.3 | 0.596 | 0.655 | 0.999 | 0.602 | 0.46 | 0.904 | 1.31 | 0.547 | 0.618 | 1.25
HGAGHYEDTIL [ALK_Y1604_P1599H] | 0.791 | 2.81 | 0.775 | 0.724 | 0.958 | 1 | 0.734 | 4.64 | 0.752 | 0.829 | 0.682 | 0.978 | 1.26 | 0.652 | 0.787 | 1.17
FPPISYLHAIS [MVD_Y276_N278H] | 0.657 | 0.657 | 0.862 | 0.565 | 0.829 | 0.793 | 0.602 | 0.545 | 0.608 | 0.434 | 0.544 | 0.612 | 0.984 | 0.579 | 0.602 | 1
SAGSSYSISGI [PAX5_Y179] | 0.535 | 0.487 | 0.852 | 0.386 | 0.417 | 0.559 | 0.412 | 0.419 | 0.457 | 0.368 | 0.426 | 0.438 | 0.53 | 0.347 | 0.395 | 0.516
KILAKYSLETS [NAMPT_Y175_L176S] | 0.529 | 0.388 | 0.871 | 0.437 | 0.476 | 0.503 | 0.354 | 0.377 | 0.301 | 0.335 | 0.256 | 0.456 | 0.537 | 0.409 | 0.442 | 0.58
FGVVGYLAIVF [RNF175_Y155_M159V] | 1.12 | 0.662 | 1.06 | 0.557 | 1.1 | 1.65 | 0.452 | 0.649 | 0.457 | 0.811 | 0.498 | 1.14 | 1.4 | 0.691 | 0.559 | 1.94
VVCKNYAEAKD [ALB_Y343_D338V] | 0.807 | 0.647 | 0.852 | 0.519 | 0.785 | 0.875 | 0.512 | 0.5 | 0.477 | 0.515 | 0.457 | 0.693 | 0.932 | 0.581 | 0.482 | 1.1
AEVIWYKGDEE | 0.531 | 0.446 | 1.11 | 0.414 | 0.616 | 1.08 | 0.369 | 0.342 | 0.303 | 0.41 | 0.343 | 0.636 | 1.26 | 0.483 | 0.359 | 1.07
YLAATYPTLGQ [NF1_Y2508_V2511L] | 0.859 | 0.764 | 0.872 | 0.633 | 0.774 | 0.754 | 0.433 | 0.677 | 0.637 | 0.331 | 0.742 | 0.642 | 0.779 | 0.663 | 0.824 | 0.773
GGYTRYCDGKK [PROS1_Y266_C265R] | 0.889 | 1.21 | 1.31 | 0.446 | 0.528 | 0.759 | 0.365 | 0.357 | 0.338 | 0.347 | 0.4 | 0.436 | 0.649 | 0.386 | 0.37 | 0.585
EEEFFYEKAIL [BCCIP_Y257] | 0.685 | 0.655 | 0.981 | 0.811 | 1.1 | 1.34 | 0.633 | 5.34 | 0.89 | 0.622 | 0.847 | 0.895 | 1.93 | 0.648 | 0.671 | 1.55
VRSNHYAPEED [TJP1_Y1346_D1347A] | 0.893 | 0.695 | 1 | 0.498 | 0.728 | 0.955 | 0.473 | 0.469 | 0.434 | 0.529 | 0.462 | 0.605 | 0.941 | 0.611 | 0.426 | 0.984
VIKDKYPKVRY [APTX_Y209_A212V] | 1.16 | 1.05 | 1.19 | 0.466 | 0.577 | 0.693 | 0.365 | 0.402 | 0.487 | 0.414 | 0.35 | 0.449 | 0.448 | 0.437 | 0.441 | 0.667
RCQDLYSARDL [SART1_Y249_R245C] | 0.605 | 0.391 | 0.825 | 9.83 | 1.41 | 1.97 | 4.61 | 2.59 | 6.42 | 1.63 | 4.7 | 1.22 | 1.95 | 1.06 | 0.876 | 1.76
LDPDSYNMFEN [FOXC1_Y159] | 0.504 | 0.575 | 0.667 | 0.465 | 0.74 | 1.44 | 0.531 | 0.527 | 0.579 | 0.637 | 0.635 | 0.855 | 1.38 | 0.865 | 0.675 | 1.14

Sequence | SH2 binding enrichment (SHP2-C SH2) | SH2 binding enrichment (c-Src SH2) | SH2 binding enrichment (Grb2 SH2) | phosphorylation enrichment (Hck) | phosphorylation enrichment (c-Abl (mouse)) | phosphorylation enrichment (Jak2) | phosphorylation enrichment (Fyn) | phosphorylation enrichment (Fer (mouse)) | phosphorylation enrichment (c-Src) | phosphorylation enrichment (EPHB1) | phosphorylation enrichment (MERTK) | phosphorylation enrichment (FGFR3) | phosphorylation enrichment (AncSZ) | phosphorylation enrichment (EPHB2) | phosphorylation enrichment (FGFR1) | phosphorylation enrichment (Fes)
VGNAAYQAGPL [STK36_Y1181] | 0.499 | 0.42 | 0.774 | 0.378 | 0.531 | 0.592 | 0.458 | 0.392 | 0.429 | 0.358 | 0.386 | 0.472 | 0.553 | 0.437 | 0.407 | 0.556
VRKRSYSAGNA [KANK1_Y324] | 0.398 | 0.343 | 0.665 | 0.48 | 0.564 | 0.441 | 0.441 | 0.457 | 0.519 | 0.495 | 0.444 | 0.492 | 0.615 | 0.436 | 0.396 | 0.621
TCFDKYTGNTY [FN1_Y101] | 0.754 | 0.472 | 0.924 | 0.516 | 0.717 | 1.01 | 0.511 | 0.534 | 0.584 | 0.519 | 0.345 | 0.648 | 1.3 | 0.63 | 0.463 | 1.16
CTTIHYNYMCY [TP53_Y234_N239Y] | 3.28 | 3.88 | 1.65 | 0.647 | 0.78 | 0.957 | 1.15 | 1.25 | 2.17 | 5.43 | 0.804 | 1.95 | 0.946 | 3.42 | 3.76 | 1
EVNETYVPKEF [ALB_Y521_D518N] | 0.501 | 0.404 | 0.759 | 0.534 | 0.851 | 1.19 | 0.564 | 0.518 | 0.523 | 0.584 | 0.477 | 0.796 | 1.19 | 0.543 | 0.524 | 1.26
YSMGCYEISLE [HMGCL_Y198_G203E] | 0.564 | 0.504 | 0.766 | 1.23 | 0.806 | 1.08 | 1.65 | 1.82 | 2.02 | 1.01 | 1.51 | 1.09 | 2.01 | 0.907 | 0.582 | 1.35
DSIRDYEDGME [CLNS1A_Y214] | 0.859 | 0.579 | 0.851 | 0.612 | 0.844 | 1.66 | 0.647 | 0.49 | 0.521 | 0.749 | 0.599 | 0.729 | 1.29 | 0.784 | 0.628 | 1.26
YPLAEYTEVKT [ALDH1A3_Y497_A493P] | 0.869 | 1.78 | 1.22 | 0.538 | 0.607 | 0.721 | 0.433 | 0.516 | 0.444 | 0.563 | 0.326 | 0.824 | 1.1 | 0.642 | 1.1 | 0.946
KRIKLYNQEND [RPGRIP1L_Y448] | 0.673 | 0.489 | 0.856 | 0.379 | 0.612 | 0.502 | 0.377 | 0.388 | 0.353 | 0.306 | 0.439 | 0.459 | 0.643 | 0.387 | 0.412 | 0.681
CQGSLYPSNHD [LRIG1_Y996] | 0.568 | 0.518 | 0.781 | 0.611 | 0.567 | 1.03 | 0.535 | 0.501 | 0.571 | 0.582 | 0.391 | 0.551 | 0.879 | 0.531 | 0.531 | 0.979
CTTIHDNFMCN [TP53_Y234_Y234D_YF] | 0.605 | 0.895 | 0.949 | 0.54 | 0.631 | 0.849 | 0.441 | 0.465 | 0.436 | 0.544 | 0.37 | 0.592 | 0.841 | 0.512 | 0.516 | 0.898
TGQEDYDRLRP [RAC1_Y64_A59T] | 0.746 | 0.528 | 0.74 | 0.836 | 0.778 | 1.02 | 0.756 | 0.563 | 0.603 | 0.781 | 0.498 | 0.732 | 1.34 | 0.94 | 0.754 | 1.17
EKQLLYLENKT [FRK_Y132_S133L] | 0.631 | 0.467 | 0.881 | 0.459 | 0.41 | 0.672 | 0.467 | 0.405 | 0.356 | 0.567 | 0.337 | 0.589 | 0.712 | 0.44 | 0.398 | 0.985
YLAATYPTVGQ [NF1_Y2508] | 0.97 | 0.515 | 0.796 | 0.454 | 0.518 | 1.08 | 0.455 | 0.357 | 0.407 | 0.357 | 0.73 | 0.51 | 0.677 | 0.472 | 0.582 | 0.753
LKGQVYILGQE [ASS1_Y359_R363Q] | 0.761 | 0.539 | 1.17 | 1.07 | 1.77 | 1.98 | 0.816 | 0.802 | 1.28 | 1.09 | 0.843 | 1.26 | 1.84 | 0.848 | 0.939 | 2.47
ILDEAYVMAGV [ERBB2_Y772] | 0.651 | 0.494 | 0.935 | 0.532 | 0.577 | 0.832 | 0.555 | 0.448 | 0.694 | 0.439 | 0.441 | 0.642 | 1.11 | 0.487 | 0.622 | 0.916
